One may read the stoichiometry N as a count of units in the complex or per binding partner.

The chains are these.
B1: Thermotoga maritima UvrA (natural protein)
chain: MNEIVVKGARVHNLKNITVRIPKNRLVVITGVSGSGKSSLAMDTIYAEGQRRYLESLSTYARQFLGNLKKPDVDEIEGLSPAIAIDQKTVSHNPRSTVGTVTEIYDYLRVLYARIGKAHCPECGRPLEKKSIDEILQDLFNSFKEGSRIYILAPVATEKKGTFKKEIEEFISKGFARIEIDGEIYRLEEVPELDKNKRHTVKLVVDRLILETRNEHRILDSLELAMREGKGFVEIRNVDTGESKIFSENLMCPVCGIGFPEITPKLFSFNSPYGACPNCHGLGFTFEVDPSLVIDEEKSVLEGAIIPYRWDRRLSRWVAREIEKRGVSPHLPFKDLPEDVKEFILYGDDRFEGVVPKVQRWHRETESPEMKEWLEKNFIVQRTCSVCGGRRLNREALSVKINGLNIHEFTELSISEELEFLKNLNLTEREREIVGELLKEIEKRLEFLVDVGLEYLTLSRSATTLSGGESQRIRLATQIGSGLTGVIYVLDEPTIGLHPRDTERLIKTLKKLRDLGNTVIVVEHDEEVIRNADHIIDIGPGGGTNGGRVVFQGTVDELLKNPDSSLTGEYLSGKRKITVNKTRRLPYASLKIKGVRHNNLKNIDVEIPLGVFVCVTGVSGSGKSSLVMETLYPALMNLLHKTKLPAGEFDSIEGHENIDKMIAIDQSPIGRTPRSNPATYTKVFDEIRSLFAMTPAAKARGYNKSRFSFNLKGGRCEACQGQGYVKIEMLFLPDVYVECDVCKGKRYNRETLEITYKGKNISDILDMTVDEALEFFKNIPSIKRTLQVLHDVGLGYVKLGQPATTLSGGEAQRIKLASELRKRDTGRTLYILDEPTVGLHFEDVRKLVEVLHRLVDRGNTVIVIEHNLDVIKNADHIIDLGPEGGKEGGYIVATGTPEEIAKNPHSYTGRFLKNVL
notes: UvrA, Thermotoga maritima; theoretical MW of the dimer printed as 205.8 kDa; the modelling section counts residues 1-916; In the assays it stood with fluorescein-modified DNA, ADP and Mg2+; also called Tm-UvrA; T. maritima (Tm) UvrA; source: BL21 STAR (DE3), pET28-SUMO based plasmid, purified (nickel resin, Ulp1 digestion, nickel resin, gel filtration)

Series [1] concerns the molecule itself. The experiment in a line: SEC-MALS; UvrA dimer (2.5 mg/ml) mixed 1:1 with self-annealed DNA (32 bp ds region, two fluorescein-modified thymines, 10 nt 5' overhangs), UvrB at two-fold molar excess over the UvrA dimer; dialysed at 4 °C against 20 mM HEPES pH 7.0, 150 mM NaCl, 5% glycerol, 1 mM DTT, 10 mM MgCl2; 1 mM ADP added; BioSuite High Resolution SEC column with MALS detector. On the technique in general: In gel filtration, larger molecules generally elute earlier.

The target in the series “Thermotoga maritima UvrA” is B1. The series is described as above. Conditions: both partners purified.

Turning to B1, in series [1], the “stoichiometry N” value came to 2.

B2: Thermus thermophilus UvrB (natural protein, UniProt Q56243 1-665, looked up)
chain: MTFRYRGPSPKGDQPKAIAGLVEALRDGERFVTLLGATGTGKTVTMAKVIEALGRPALVLAPNKILAAQLAAEFRELFPENAVEYFISYYDYYQPEAYVPGKDLYIEKDASINPEIERLRHSTTRSLLTRRDVIVVASVSAIYGLGDPREYRARNLVVERGKPYPREVLLERLLELGYQRNDIDLSPGRFRAKGEVLEIFPAYETEPIRVELFGDEVERISQVHPVTGERLRELPGFVLFPATHYLSPEGLEEILKEIEKELWERVRYFEERGEVLYAQRLKERTLYDLEMLRVMGTCPGVENYARYFTGKAPGEPPYTLLDYFPEDFLVFLDESHVTVPQLQGMYRGDYARKKTLVDYGFRLPSALDNRPLRFEEFLERVSQVVFVSATPGPFELAHSGRVVEQIIRPTGLLDPLVRVKPTENQILDLMEGIRERAARGERTLVTVLTVRMAEELTSFLVEHGIRARYLHHELDAFERQALIRDLRLGHYDCLVGINLLREGLDIPEVSLVAILDADKEGFLRSERSLIQTIGRAARNARGEVWLYADRVSEAMQRAIEETNRRRALQEAYNLEHGITPETVRKEVRAVIRPEGYEEAPLEADLSGEDLRERIAELELAMWQAAEALDFERAARLRDEIRALEARLQGVRAPEPVPGGRKRKRR
notes: theoretical MW printed as 76.2 kDa; Two UvrB monomers stand in the complex, one on each side of the UvrA dimer; The complex is heterologous (T. maritima UvrA with T. thermophilus UvrB); also called Tt-UvrB; Thermus thermophilus (Tt) UvrB; source: BL21-CodonPlus(DE3)-RIL, pET28 based plasmid, purified (nickel resin, HRV 3C digestion, nickel resin, gel filtration)
For the molecule B2, in the series with Thermotoga maritima UvrA, the “stoichiometry N” value was 2 UvrB per UvrA dimer.

For the origin of these results see publication PMC7616783, “A combined structural and biochemical approach reveals translocation and stalling of UvrB on the DNA lesion as a mechanism of damage verification in bacterial nucleotide excision repair” (DNA repair, 2019).
